B1: probe A2 (PADT-A 281-370) (dsDNA)
DNA 1: ACAACAGACTGGTAAGGCACACGTGCTTCCACGAGATCCACTAACTTGCGCGGGTGTTTACACACCTAACCACTCCGGAGCTTCCATGCT
DNA 2: AGCATGGAAGCTCCGGAGTGGTTAGGTGTGTAAACACCCGCGCAAGTTAGTGGATCTCGTGGAAGCACGTGTGCCTTACCAGTCTGTTGT
B2: probe D2 (PADT-D 192-318) (dsDNA)
DNA 1: GCTGGTGAGAAGGGCCAAACCAAAAAAAAACCAAACGAAATCACAGCGTACGATCTAACTAACCGTGTTGAATAGTCCCGTGACGTAGCCGCCGTAATGTGCAACAACCCACCATGGGATGGAGCAG
DNA 2: CTGCTCCATCCCATGGTGGGTTGTTGCACATTACGGCGGCTACGTCACGGGACTATTCAACACGGTTAGTTAGATCGTACGCTGTGATTTCGTTTGGTTTTTTTTTGGTTTGGCCCTTCTCACCAGC
B3: probe A1 (PADT-A 225-329) (dsDNA)
DNA 1: TAACTTGCGCGGGTGTTTACACACCTAACCACTCCGGAGCTTCCATGCTTCATCCACGAGTCAGAGGGGCCTTTCCTCCAACCACCCTAGATCAGCATGAGCTAT
DNA 2: ATAGCTCATGCTGATCTAGGGTGGTTGGAGGAAAGGCCCCTCTGACTCGTGGATGAAGCATGGAAGCTCCGGAGTGGTTAGGTGTGTAAACACCCGCGCAAGTTA

How the values were obtained:
PpMYB8 [1] = target: T1, PpMYB8 (Pinus pinaster, UniProt D7GLD4 1-534); assay: EMSA; shift reduced by unlabeled probe; EMSA buffer, salt, pH and temperature not given in material (electrophoresis as in Rueda-López et al. 2008); details: protein: recombinant; label: 5'-biotin
T1 sequence (D7GLD4 entry or part of it): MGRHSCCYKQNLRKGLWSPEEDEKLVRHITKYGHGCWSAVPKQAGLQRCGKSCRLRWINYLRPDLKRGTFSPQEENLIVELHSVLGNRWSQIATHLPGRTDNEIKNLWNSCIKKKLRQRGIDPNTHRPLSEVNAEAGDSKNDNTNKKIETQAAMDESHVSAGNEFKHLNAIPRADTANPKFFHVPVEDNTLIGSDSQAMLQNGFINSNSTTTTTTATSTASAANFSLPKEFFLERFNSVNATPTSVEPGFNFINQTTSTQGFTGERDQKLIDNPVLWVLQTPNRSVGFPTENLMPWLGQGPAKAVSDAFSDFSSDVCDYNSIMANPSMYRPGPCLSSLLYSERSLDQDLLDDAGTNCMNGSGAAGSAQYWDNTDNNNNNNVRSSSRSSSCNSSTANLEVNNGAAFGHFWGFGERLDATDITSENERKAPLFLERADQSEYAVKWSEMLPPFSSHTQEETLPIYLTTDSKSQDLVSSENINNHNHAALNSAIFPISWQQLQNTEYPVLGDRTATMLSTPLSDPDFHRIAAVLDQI

PpMYB8 [2] = target: T1, PpMYB8; assay: EMSA; EMSA buffer, salt, pH and temperature not given in material (electrophoresis as in Rueda-López et al. 2008); details: protein: recombinant; label: 5'-biotin

| Binder | binding result (PpMYB8 [1]) | binding result (PpMYB8 [2]) |
| --- | --- | --- |
| B1 | binds |  |
| B2 |  | no binding |
| B3 |  | no binding |

Source: publication PMC7260716, “Transcriptional analysis of arogenate dehydratase genes identifies a link between phenylalanine biosynthesis and lignin biosynthesis”
